Data: paper PMC3033427, “Role of the Small GTPase Rho3 in Golgi/Endosome Trafficking through Functional Interaction with Adaptin in Fission Yeast” (PLoS ONE, 2011)
Changes are numbered by the printed parent chain. Names and notes keep the numbering of the source.

B1: GFP-Rho3 (wild-type Rho3 fused to GFP) (natural protein, S. pombe, UniProt O13928 1-205, looked up)
chain: MSSCFGSKKKPIYRKIVILGDGAAGKTSLLNVFTKGYFPQVYEPTIFENYIHDIFVDGNSIELSLWDTAGQEEYDQLRSLSYSDTHVIMICFAVDSRDSLENVITKWLPEVSSNCPGVKLVLVALKCDLRGADEEQVDHSKIIDYEEGLAAAKKINAVRYLECSAKLNRGVNEAFTEAARVALAAQPRGTKDGADESHGTGCIIA
notes: Rho3, Rho-family small GTPase of S. pombe (SPAC23C4.08); complete open reading frame amplified from genomic DNA, first methionine as in the Sanger Institute database; The name GFP-Rho3 puts GFP at the N-terminus, but the methods say the ORF 'was ligated to the N-terminus of the GFP'; also called GFP-fused Rho3; source: S. pombe cells, overexpressed from the inducible nmt1 promoter, …
B2: GFP-Rho3G22V (GTP-locked variant of Rho3 fused to GFP) (natural protein, S. pombe, UniProt O13928 1-205, looked up)
chain: B1 chain with G22V
notes: Rho3 of S. pombe (SPAC23C4.08), complete open reading frame, Gly22 changed to Val by site-directed mutagenesis; also called Rho3GV; GFP-Rho3GV; source: S. pombe cells, overexpressed from the inducible nmt1 promoter, in lysate (pull-down); not shown: GFP (S65T), N-terminal, kept
B3: GFP-Rho3E48V (effector domain mutant of Rho3 fused to GFP) (natural protein, S. pombe, UniProt O13928 1-205, looked up)
chain: B1 chain with E48V
notes: Rho3 of S. pombe (SPAC23C4.08), complete open reading frame, Glu48 changed to Val by site-directed mutagenesis; Analogue of the budding yeast rho3-V51 mutant; also called Rho3EV; GFP-Rho3EV; source: S. pombe cells, overexpressed from the inducible nmt1 promoter, in lysate (pull-down); not shown: GFP (S65T), N-terminal, kept

target: T1, Apm1-GST (purified full-length Apm1 fused to GST) (S. pombe, UniProt Q9HFE5 1-426); test: affinity capillary electrophoresis; GFP-fused Rho3 sample migrating in 50 mM phosphate buffer pH 6.8 containing Apm1-GST at 200 µg/ml (control: GST-Rho3 at 200 µg/ml); 15 kV, 25°C, laser-induced fluorescence detection; migration time-shift = t(control) - t(affinity)
T1 construct: Apm1, µ1 subunit of the clathrin-associated adaptor protein-1 (AP-1) complex of fission yeast, full length; the methods give no details of the construct or its expression; also called GST-fused Apm1; µ1 subunit of the AP-1 complex; source: purified; not shown: GST, C-terminal, kept
T1 sequence (looked up): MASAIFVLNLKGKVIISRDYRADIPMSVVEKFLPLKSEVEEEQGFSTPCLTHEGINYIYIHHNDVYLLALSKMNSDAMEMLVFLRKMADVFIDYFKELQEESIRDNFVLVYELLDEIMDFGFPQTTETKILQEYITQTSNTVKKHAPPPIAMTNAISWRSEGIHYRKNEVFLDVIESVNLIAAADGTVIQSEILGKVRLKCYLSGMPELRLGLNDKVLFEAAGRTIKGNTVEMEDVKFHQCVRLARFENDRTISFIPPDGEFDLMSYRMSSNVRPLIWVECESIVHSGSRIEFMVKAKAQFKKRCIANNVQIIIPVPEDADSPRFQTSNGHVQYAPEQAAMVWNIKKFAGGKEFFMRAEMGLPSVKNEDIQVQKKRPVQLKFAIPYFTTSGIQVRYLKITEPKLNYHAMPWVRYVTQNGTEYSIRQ

Binder	migration time-shift [min]
B1	0.84
B2	0.94
B3	0.82

target: T1, Apm1-GST (purified full-length Apm1 …); test: affinity capillary electrophoresis; GFP-fused Rho3 sample migrating in 50 mM phosphate buffer pH 6.8 containing Apm1-GST at 100 µg/ml (control: GST-Rho3 at 100 µg/ml); 15 kV, 25°C, laser-induced fluorescence detection; migration time-shift = t(control) - t(affinity)

Binder	migration time-shift [min]
B1	0.45
B2	1.33
B3	0.25
